# From patent US20040106569
# Marks after values point to notes of the source that are not given here.
# B1: PKNbeta deltaN comprising amino acids 288-889 (protein)
# chain: CEQLLTAVPGRSPAAALASSPSEGWLRTKAKHQRGRGELASEVLAVLKVDNRVVGQTGWGQVAEQSWDQTFVIPLERARELEIGVHWRDWRQLCGVAFLRLEDFLDNACHQLSLSLVPQGLLFAQVTFCDPVIERRPRLQRQERIFSKRRGQDFLRRSQMNLGMAAWGRLVMNLLPPCSSPSTISPPKGCPRTPTTLREASDPATPSNFLPKKTPLGEEMTPPPKPPRLYLPQEPTSEETPRTKRPHMEPRTRRGPSPPASPTRKPPRLQDFRCLAVLGRGHFGKVLLVQFKGTGKYYAIKALKKQEVLSRDEIESLYCEKRILEAVGCTGHPFLLSLLVCFQTSSHARFVTEFVPGGDLMMQIHEDVFPEPQARFYVACVVLGLQFLHEKKIIYRDLKLDNLLLDAQGFLKIADFGLCKEGIGFGDRTSTFCGTPEFLAPEVLTQEAYTQAVDWWALGVLLYEMLVGECPFPGDTEEEVFDCIVNMDAPYPGFLSVQGLEFIQKLLQKCPEKRLGAGEQDAEEIKVQPFFRTTNWQALLARTIQPPFVPTLCGPADLRYFEGEFTGLPPALTPPAPHSLLTARQQAAFRDFDFVSERFLEP
# B2: full length PKNbeta KE588 mutant (protein)
# chain: MEEGAPRQPGPSQWPPEDEKEVIRRAIQKELKIKEGVENLRRVATDRRHLGHVQQLLRSSNRRLEQLHGELRELHARILLPGPGPGPAEPVASGPRPWAEQLRARHLEALRRQLHVELKVKQGAENMTHTCASGTPKERKLLAAAQQMLRDSQLKVALLRMKISSLEASGSPEPGPELLAEELQHRLHVEAAVAEGAKNVVKLLSSRRTQDRKALAEAQAQLQESSQKLDLLRLALEQLLEQLPPAHPLRSRVTRELRAAVPGYPQPSGTPVKPTALTGTLQVRLLGCEQLLTAVPGRSPAAALASSPSEGWLRTKAKHQRGRGELASEVLAVLKVDNRVVGQTGWGQVAEQSWDQTFVIPLERARELEIGVHWRDWRQLCGVAFLRLEDFLDNACHQLSLSLVPQGLLFAQVTFCDPVIERRPRLQRQERIFSKRRGQDFLRRSQMNLGMAAWGRLVMNLLPPCSSPSTISPPKGCPRTPTTLREASDPATPSNFLPKKTPLGEEMTPPPKPPRLYLPQEPTSEETPRTKRPHMEPRTRRGPSPPASPTRKPPRLQDFRCLAVLGRGHFGKVLLVQFKGTGKYYAIEALKKQEVLSRDEIESLYCEKRILEAVGCTGHPFLLSLLVCFQTSSHARFVTEFVPGGDLMMQIHEDVFPEPQARFYVACVVLGLQFLHEKKIIYRDLKLDNLLLDAQGFLKIADFGLCKEGIGFGDRTSTFCGTPEFLAPEVLTQEAYTQAVDWWALGVLLYEMLVGECPFPGDTEEEVFDCIVNMDAPYPGFLSVQGLEFIQKLLQKCPEKRLGAGEQDAEEIKVQPFFRTTNWQALLARTIQPPFVPTLCGPADLRYFEGEFTGLPPALTPPAPHSLLTARQQAAFRDFDFVSERFLEP
# B3: full length wildtype PKNbeta molecule (889 amino acids) (protein)
# chain: MEEGAPRQPGPSQWPPEDEKEVIRRAIQKELKIKEGVENLRRVATDRRHLGHVQQLLRSSNRRLEQLHGELRELHARILLPGPGPGPAEPVASGPRPWAEQLRARHLEALRRQLHVELKVKQGAENMTHTCASGTPKERKLLAAAQQMLRDSQLKVALLRMKISSLEASGSPEPGPELLAEELQHRLHVEAAVAEGAKNVVKLLSSRRTQDRKALAEAQAQLQESSQKLDLLRLALEQLLEQLPPAHPLRSRVTRELRAAVPGYPQPSGTPVKPTALTGTLQVRLLGCEQLLTAVPGRSPAAALASSPSEGWLRTKAKHQRGRGELASEVLAVLKVDNRVVGQTGWGQVAEQSWDQTFVIPLERARELEIGVHWRDWRQLCGVAFLRLEDFLDNACHQLSLSLVPQGLLFAQVTFCDPVIERRPRLQRQERIFSKRRGQDFLRRSQMNLGMAAWGRLVMNLLPPCSSPSTISPPKGCPRTPTTLREASDPATPSNFLPKKTPLGEEMTPPPKPPRLYLPQEPTSEETPRTKRPHMEPRTRRGPSPPASPTRKPPRLQDFRCLAVLGRGHFGKVLLVQFKGTGKYYAIKALKKQEVLSRDEIESLYCEKRILEAVGCTGHPFLLSLLVCFQTSSHARFVTEFVPGGDLMMQIHEDVFPEPQARFYVACVVLGLQFLHEKKIIYRDLKLDNLLLDAQGFLKIADFGLCKEGIGFGDRTSTFCGTPEFLAPEVLTQEAYTQAVDWWALGVLLYEMLVGECPFPGDTEEEVFDCIVNMDAPYPGFLSVQGLEFIQKLLQKCPEKRLGAGEQDAEEIKVQPFFRTTNWQALLARTIQPPFVPTLCGPADLRYFEGEFTGLPPALTPPAPHSLLTARQQAAFRDFDFVSERFLEP
# B4: full length PKNbeta with the TA mutation at amino acid 718 (protein)
# chain: MEEGAPRQPGPSQWPPEDEKEVIRRAIQKELKIKEGVENLRRVATDRRHLGHVQQLLRSSNRRLEQLHGELRELHARILLPGPGPGPAEPVASGPRPWAEQLRARHLEALRRQLHVELKVKQGAENMTHTCASGTPKERKLLAAAQQMLRDSQLKVALLRMKISSLEASGSPEPGPELLAEELQHRLHVEAAVAEGAKNVVKLLSSRRTQDRKALAEAQAQLQESSQKLDLLRLALEQLLEQLPPAHPLRSRVTRELRAAVPGYPQPSGTPVKPTALTGTLQVRLLGCEQLLTAVPGRSPAAALASSPSEGWLRTKAKHQRGRGELASEVLAVLKVDNRVVGQTGWGQVAEQSWDQTFVIPLERARELEIGVHWRDWRQLCGVAFLRLEDFLDNACHQLSLSLVPQGLLFAQVTFCDPVIERRPRLQRQERIFSKRRGQDFLRRSQMNLGMAAWGRLVMNLLPPCSSPSTISPPKGCPRTPTTLREASDPATPSNFLPKKTPLGEEMTPPPKPPRLYLPQEPTSEETPRTKRPHMEPRTRRGPSPPASPTRKPPRLQDFRCLAVLGRGHFGKVLLVQFKGTGKYYAIKALKKQEVLSRDEIESLYCEKRILEAVGCTGHPFLLSLLVCFQTSSHARFVTEFVPGGDLMMQIHEDVFPEPQARFYVACVVLGLQFLHEKKIIYRDLKLDNLLLDAQGFLKIADFGLCKEGIGFGDRTSAFCGTPEFLAPEVLTQEAYTQAVDWWALGVLLYEMLVGECPFPGDTEEEVFDCIVNMDAPYPGFLSVQGLEFIQKLLQKCPEKRLGAGEQDAEEIKVQPFFRTTNWQALLARTIQPPFVPTLCGPADLRYFEGEFTGLPPALTPPAPHSLLTARQQAAFRDFDFVSERFLEP
# Tests used:
# [1] = biological target: GST-GSK3 fusion protein (Cell Signaling Technology)
Protein,Activity (phosphorylation of MPB) (myelin basic protein),non-radioactive in vitro kinase assay (FIG. 11A) [1],"radioactive in vitro kinase assay, 32P incorporation by autoradiography (FIG. 11B) (myelin basic protein)","non-radioactive in vitro kinase assay, phosphorylated substrate detected by Western blot [1]"
B1,-*,–,–,–
B2,–,no (FIG. 11A) or background activity of unspecific kinases (FIG. 11B) were detected with the full length KE and full length TA mutatant proteinss,background activity of unspecific kinases (FIG. 11B),–
B3,++*,–,the full length wildtype protein kinase N beta as well as the kinase domain show activity,Only the full length wildtype protein kinase N beta or the kinase domain as defined in example 9 were suitable to phosphorylate the substrate
B4,–,no (FIG. 11A) or background activity of unspecific kinases (FIG. 11B) were detected with the full length KE and full length TA mutatant proteinss,background activity of unspecific kinases (FIG. 11B),–
